# Reference: patent US20240084003A1 (SIMCERE ZAIMING PHARMACEUTICAL, published 2024)
# T1: human CD22-ECD-His protein (human, UniProt P20273 20-687)
# T1 construct: Made in house in HEK293E; also called hCD22-ECD-His; recombinant human CD22-ECD His protein; not shown: His tag
# T1 sequence: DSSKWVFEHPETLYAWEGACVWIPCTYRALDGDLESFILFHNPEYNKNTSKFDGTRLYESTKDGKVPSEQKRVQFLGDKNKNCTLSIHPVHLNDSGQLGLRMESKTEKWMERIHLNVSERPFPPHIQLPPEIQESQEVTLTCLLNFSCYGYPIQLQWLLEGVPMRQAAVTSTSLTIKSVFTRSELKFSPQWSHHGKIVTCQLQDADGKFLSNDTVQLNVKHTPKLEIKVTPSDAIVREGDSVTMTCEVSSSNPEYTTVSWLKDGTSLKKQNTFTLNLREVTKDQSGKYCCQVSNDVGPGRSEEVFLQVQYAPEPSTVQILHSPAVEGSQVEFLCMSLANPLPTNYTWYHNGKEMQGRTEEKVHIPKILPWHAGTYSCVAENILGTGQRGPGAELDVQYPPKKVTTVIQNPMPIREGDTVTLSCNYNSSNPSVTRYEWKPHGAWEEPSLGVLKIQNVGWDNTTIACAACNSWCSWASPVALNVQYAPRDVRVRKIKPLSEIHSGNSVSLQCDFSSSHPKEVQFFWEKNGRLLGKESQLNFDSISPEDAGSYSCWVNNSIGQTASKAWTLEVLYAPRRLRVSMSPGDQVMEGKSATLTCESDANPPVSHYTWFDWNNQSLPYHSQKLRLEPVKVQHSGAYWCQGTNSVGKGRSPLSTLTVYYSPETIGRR
# T2: monkey CD22 protein (ACROBiosystems, SI2-R52Ha) (monkey (rhesus monkey in paragraph 148), UniProt H9G1X2 18-686)
# T2 construct: extracellular domain; also called monkey CD22-ECD; monkey CD22-ECD-His
# T2 sequence: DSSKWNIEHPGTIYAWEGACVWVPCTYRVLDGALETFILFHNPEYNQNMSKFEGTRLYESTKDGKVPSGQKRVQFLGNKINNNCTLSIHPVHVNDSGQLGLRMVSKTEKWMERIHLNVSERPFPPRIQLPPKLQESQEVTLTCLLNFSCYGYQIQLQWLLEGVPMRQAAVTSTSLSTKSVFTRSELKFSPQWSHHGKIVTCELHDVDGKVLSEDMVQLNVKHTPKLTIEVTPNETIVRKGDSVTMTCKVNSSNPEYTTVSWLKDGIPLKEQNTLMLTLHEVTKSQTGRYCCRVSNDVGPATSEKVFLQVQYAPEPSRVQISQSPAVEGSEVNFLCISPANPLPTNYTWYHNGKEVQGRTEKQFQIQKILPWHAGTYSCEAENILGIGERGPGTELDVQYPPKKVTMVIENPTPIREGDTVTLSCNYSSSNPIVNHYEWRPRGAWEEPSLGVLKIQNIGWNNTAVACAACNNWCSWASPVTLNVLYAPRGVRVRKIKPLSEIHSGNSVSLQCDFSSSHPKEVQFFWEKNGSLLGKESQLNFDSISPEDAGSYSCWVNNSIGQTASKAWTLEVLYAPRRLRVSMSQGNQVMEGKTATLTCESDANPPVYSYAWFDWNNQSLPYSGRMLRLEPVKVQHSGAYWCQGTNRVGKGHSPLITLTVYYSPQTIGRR
# T3: human CD22 domain1-4-His (human, UniProt P20273 20-425)
# T3 construct: also called hCD22 domain1-4-His; not shown: His tag
# T3 sequence: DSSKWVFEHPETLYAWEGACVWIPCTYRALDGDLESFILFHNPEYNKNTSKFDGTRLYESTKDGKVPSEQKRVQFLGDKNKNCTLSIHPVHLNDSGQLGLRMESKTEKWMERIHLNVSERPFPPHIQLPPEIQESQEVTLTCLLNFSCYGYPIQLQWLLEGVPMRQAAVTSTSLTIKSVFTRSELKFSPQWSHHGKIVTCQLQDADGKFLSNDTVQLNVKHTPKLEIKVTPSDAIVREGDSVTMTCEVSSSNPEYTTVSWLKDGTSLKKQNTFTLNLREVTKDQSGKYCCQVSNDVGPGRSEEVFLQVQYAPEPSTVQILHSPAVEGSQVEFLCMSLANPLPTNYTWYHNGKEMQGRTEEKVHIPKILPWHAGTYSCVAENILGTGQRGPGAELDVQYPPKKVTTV
# Columns and labels:
# [1] = target: T1, human CD22-ECD-His protein; experiment: ELISA, Ab 0.10 nM
# Procedure, shortened: (§1)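 Binding of chimeric anti-CD22 antibodies was detected by indirect ELISA on CD22-ECD-His coated at 2 μg/mL, with HRP secondary and TMB substrate.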
# [2] = target: T1, human CD22-ECD-His protein; experiment: ELISA, human CD22-ECD-His coated
# Procedure, shortened: as §1
# [3] = target: T1, human CD22-ECD-His protein; experiment: ELISA, Ab 100.00 nM
# Procedure, shortened: as §1
# [4] = target: T2, monkey CD22 protein (ACROBiosystems, …); experiment: ELISA, monkey CD22-ECD-His coated
# Procedure, shortened: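 Plates were coated overnight at 4° C with 2 μg/mL CD22 protein in PBS and blocked with PBS + 2% BSA. Chimeric antibodies were incubated for 2 h at 37° C, then HRP-labelled secondary for 2 h at 37° C. Bound antibody was read by TMB colour development (30 min, RT) stopped with 1.0 N HCl.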
# human CD22 domain1-4-His = target: T3, human CD22 domain1-4-His; experiment: ELISA, human CD22 domain1-4-His coated
# [5] = target: T1, human CD22-ECD-His protein; experiment: ELISA, Ab 0.001 nM
# Procedure, shortened: as §1
Binder,OD450 [1] [OD450],EC50 (read off the curve) [2] [nM],OD450 [3] [OD450],EC50 (read off the curve) [4] [nM],EC50 (read off the curve) (human CD22 domain1-4-His) [nM],OD450 [5] [OD450],binding result [4],binding result (human CD22 domain1-4-His)
"F1.17.1 (antibody, human IgG1, kappa, V domains shown, Human-murine chimeric IgG1, kappa) VH: QVQLKESGPGLVAPSQSLSITCTVSGFSLSRYTVHWVRQPPGKGLEWLGMIWGGGSTDYNSALKSRLSISKDNSKSQVFLKMNSLQTDDTAMYYCARPHDFDAGGFAYWGQGTLVTVSA VL: QIVLTQSPAILSTSPGEKVTMTCSASSRVNYMYWYQQKPGSSPRLLIYDTSNLASGVPVRFSGSGSGTSYSLTISRMEAEDAATYYCQQWTSYPLTFGAGTKLELKR",2.41,~0.03,2.86,~0.02,~0.1,0.75,–,–
"F2.70.2 (antibody, human IgG1, lambda, V domains shown, Human-murine chimeric IgG1, lambda) VH: EVQLVESGGGLVKPGGSLKLSCAASGFTFSDYGMNWFRQAPEKGLEWVAYISRGSHTIYYADTVKGRFTISRDNAKNTLFLQMTSLRSNDTAMYYCVRMAGYYAMDYWGQGTSVTVSS VL: QLVLTQSSSASFSLGASAKLTCTLSSQHSSYIIEWYQQQPLKPPKYVMELKKDGSHSTGDGIPDRFSGSSSGADRYLSISNIQPEDEAIYICGVGDTIKEQFVYVFGGGTKVTVLG",1.86,~0.03,2.24,–,~0.03,0.57,no binding (tested: 100 nM),–
"F2.104.10 (antibody, human IgG1, lambda, V domains shown, Human-murine chimeric IgG1, lambda) VH: EVQLVESGGGFVKPGGSLKLSCAASGFTFSDYGMNWFRQAPEKGLEWVAYISRGSHTIYYADTVKGRFTISRDNAENTLFLQMTSLRSNDTAMYYCVRMAGYYAMDYWGQGTSLTVSS VL: QLVLTQSSSASFSLGASAKLTCTLSSQHSSYIIEWYQQQPLKPPKYVMEVKKDGSHSTGDGIPDRFSGSSSGADRYLSISNIQSEDEAIYICGVGDTIKEQFVYVFGGGTKVTVLG",1.94,~0.03,2.44,–,~0.04,0.66,no binding (tested: 100 nM),–
"F2.55.1 (antibody, human IgG1, lambda, V domains shown, Human-murine chimeric IgG1, lambda) VH: QVTLKESGPGILQPSQTLSLTCSFSGFSLSTFPLGVGWIRQPSGKGLEWLAHVWWNDDDYYNPALKSRLTISKDTSNTRVFLSVASVDTAETATYYCARLNWDRWYFDVWGTGTTVTVSS VL: QLVLTQSSSASFSLGASAKLTCTLSSQHSAYTVEWYQQQPLKPPKYVMELKKDGSHSTGDGIPDRFSGSSSGADRYLSISNIQPEDEAIYICGVGDTVKEQFVFGGGTKVTVLG",2.03,~0.06,2.08,~0.1,~0.1,0.44,–,–
"F1.60.9 (antibody, human IgG1, kappa, V domains shown, Human-murine chimeric IgG1, kappa) VH: QVQLKESGPGLVAPSQSLSITCTVSGLSLNNYGVSWVRQPPGKGLEWLGVIWGDGSTNYHSALISRLSISKDNSKSQVFLKLNSLHTDDTATYYCAINWGDYWGQGTTLIVSS VL: DIKMTQSPSSMNASLGERVTITCKASQDINSYLSWFQQKPGKSPKILIYRANRLIDGVPSRFSGSGSGQDYSLTISSLEYEDMGIYYCLQYGVFPLTFGAGTKLELKR",2.59,~0.05,2.82,–,–,0.47,no binding (tested: 100 nM),no binding (tested: 100 nM)

# Other lines, results leading:
OD450 [1] [OD450],EC50 (read off the curve) [2] [nM],OD450 [3] [OD450],EC50 (read off the curve) [4] [nM],EC50 (read off the curve) (human CD22 domain1-4-His) [nM],OD450 [5] [OD450],binding result [4],binding result (human CD22 domain1-4-His),Binder
2.1,~0.06,2.22,~0.03,~0.04,0.4,–,–,"F2.205.9 (antibody, human IgG1, lambda, V domains shown, Human-murine chimeric IgG1, lambda) VH: QVTLKESGPGILQPSQTLSLTCSFSGFSLSTSGMGVGWIRQPSGKGLEWLAHIWWDDDEYYNPALKSRLTISKDTSKNQVFLKIANVDTADTATYYCARISIPYGYYDWFFDVWGTGTTVTVSA VL: QAVVTQESALTTSPGETVTLTCRSSTGAVTTRNYANWVQEKPDHLFTGLIGGTNNRAPGVPARFSGSLIGDKAALTITGAQTEDEAIYFCALWYSNHFIFGSGTKVTVLG"
1.93,~0.06,1.94,–,~0.06,0.43,no binding (tested: 100 nM),–,"F2.343.16 (antibody, human IgG1, lambda, V domains shown, Human-murine chimeric IgG1, lambda) VH: QVQLKQSGPGLVQPSQSLSITCTVSGFSLTGYGVQWVRQSPGKGLEWLGVIWGGGGTDYNAAFISRLNIIKDNSKSQVFFKMNSLQADDTAIYYCARYSKYGHFDVWGTGTAVTVSS VL: QAVVTQESALTTSPGETVTLTCRSSTGAVTTSNYANWVQEKPDHLFTGLIGGTYNRVPGVPARFSGSLIGDKAALTITGAQTEDEAIYFCALWYSNHFWVFGGGTKLTVLG"
2.57,~0.01,2.7,–,~0.02,1.24,no binding (tested: 100 nM),–,"F1.245.2 (antibody, human IgG1, kappa, V domains shown, Human-murine chimeric IgG1, kappa) VH: EVQLQQSGAELVKPGASVKLSCTGSGFNIKDYYIHWVKQRTEQGLEWMGRIDPEDGETEYAPKFQDEATITSDTSSNTAYLQLSSLTYEDTAVYYCAREAAGYFYRGSSYGYFDVWGTGTTVTVSS VL: DFQMTQTTSFLSASLGDRVTISCSASQDISNYLNWYQQKPDGTVKLLIYYTSSLHSGVPSRFSGSGSGTDYSLTISNLEPEDIATYYCQQYSMLPYTFGGGTKLEMER"
